# Reference: patent US20040138133A1 (Scripps Research, published 2004)
# No end group written: not given here.
# B1: control peptide (first two prolines replaced by A and G) lacking the Tat sequence, with a cysteine for coupling to agarose (peptide)
# peptide: KAGAPPMRNTSTMC
# modifications: also: C-terminal Cys coupled to thiol-Sepharose (agarose) beads
# notes: also called mutant peptide
# Biological target: T1, Nck (adapter protein) from detergent extracts of human endothelial cells (human, UniProt P16333 2-377, limits assumed)
# T1 construct: Endogenous protein pulled down from a cell lysate
# Experiment: peptide-agarose pull-down from human endothelial cell lysate, anti-Nck western blot
# Method: Affinity Chromatography. PRO or control peptides containing an N-terminal cysteine were dissolved in about 1 ml of coupling buffer (50 mM tris pH 8.0, 5 mM EDTA) and about 0.5 ml at about 3 mg/ml peptide added to about 2 ml of activated thiol-Sepharose (Pharmacia). Samples were incubated at a temperature of about 4° C. overnight with 1% β-mercaptoethanol added to block unreacted sites. Beads were rinsed and stored at a temperature of about 4° C. Endothelial cell cultures in 15 cm dishes were extracted in about 1.0 ml of cold (about 4° C.), lysis buffer (20 mM pH 7.4 sodium phosphate, 100 mM NaCl, 1% Triton X-100, 10 mM NaF, 2 mM EDTA, 1 mM sodium orthovanadate, 1 mM PMSF, 10 μg/ml each of leupeptin and aprotinin). The extracts were centrifuged for about 10 minutes at top speed in a microfuge and the supernatants were then removed. A 0.5 ml sample of each extract was incubated with about 10 μl of packed beads for about 1 hour, with rotation at a temperature of about 4° C. The beads were rinsed with lysis buffer (about 4×0.5 ml) and dissolved in SDS sample buffer (about 0.04 ml). Samples were analyzed by SDS PAGE on 10% gels and immunoblotting with anti-NCK (Santa Cruz) and HRP-protein A as secondary, and then were developed and detected using enhanced chemiluminescence (ECL kit, Amersham). […]
binder,measurement,value
B1,binding result,no binding
